# System: HEK293T
# Assay: median enrichment of reporter reads in eGFP-reduced (low/intermediate) vs eGFP-high sorted cells (eGFP-extension fusion abundance) (ratio); higher = stronger loss of eGFP-fusion protein abundance (more destabilising extension)
# 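Also: lentiviral eGFP-IRES-mCherry reporter pool sorted by FACS 96 h post-transduction, gated on mCherry-high cells, Illumina read counts normalized per million, median across four biological replicates.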
row,Substance,median enrichment
1,LFIRSHGPITITLFSAFLLSSFLLSSPLLSSPLLPSPLCFFFFFFSFLWRSFALVAQAAVQWLNLGSLQPLPPRFK [GFRAL],7.15
2,WSQLTSLSRKVYP [CD9],1.91
3,QDPVVLFESLRP [HAVCR1],0.393
4,YKMIVLTPYTNVLLLALIKLLEG [MAX],15.5
5,YMQRPRRAALTTRFIF [EWSR1],6.81
6,SRGSHAPPPPCHSLGPHLPLP [SDC1],0.282
7,LFCCCIYTSKGPDLLLLKLFFKTWNYKEIRSSITFDTNFYRN [TTC13],5.88
8,WGGLGCQCCRDPGCPGLWGRTGSPHPPTPAKGGASPESPPVRPSEPTSHPPSSQGVRAPDGPGRHPGGPATAGEGT [TMEM184A],2.58
9,LRRGPGSLRACEEHLLPKNVWFFFLFCFRFSSFEEQREIKRRPPGRGAFSQRLGRFPKSRVPASPAEFTSVPEAAVSSS [BIN1],7.66
10,LLHMQKDSAIYLKID [APBB2],11.6
11,WDREDPA [BTNL3],0.401
12,SEMMSCPGPMATRTLQATLLCDQARIPGAGLRGLNGPSGTQVGLSTLSPTTQPTALK [TMEM54],0.763
13,SWPPPFPPPAPSPSPTRQLIPGLLSDPFSRGTSGQCPTTHTHHHLTGSSLISDNPHPHCFWGSLSHLSHPVSCLCLSWCLSGL [CCDC97],5.65
14,FFFFFFFF [Phe08],9.45
15,AAAAAA [Ala06],8.25
16,LIHGAEG [SLC16A1],1.29
17,LYPFPIHSQINYNGC [SCNM1],7.94
18,GAMLPSSSSPPSTGWDRRQVPAHACLRLFPPLGQALGWKLGS [ADCYAP1R1],9.03
19,WRLSISRDMVLTQQFPVMAKCSI [IL13RA2],5.59
20,RYCSTQPNL [BRPF1],3.69
21,CLERW [LCOR],1.17
22,RPLLRVCPAPFHQ [DYRK4],1.43
23,YYY [Tyr03],1.14

row,Substance,median enrichment
1,RGPASHGPRTMESPLSS [GNB1L],0.533
2,RGRTSALSDRTLRAMLPCHP [MRGPRX3],6.81
3,KPERSQDPSRQHQLTDALVVPPSSPDCARSAVPSSGHLSSLWVPPHPSPC [RBP5],5.79
4,RKCQEWKIFLILVQHEVVFRSLLSLIAILRFVGFYERLLLSGLKSFLNVCFLRSVIQLCEYFVTDLFQWLLV [HINT3],11.3
5,YDSLVL [ALDH5A1],0.258
6,LSVCHR [DPYS],1.17
7,LYRSRWFFTALDIIPFYHPFITPKVCLIASEVYKVV [PLPPR5],7.74
8,RRRRRRRRR [Arg09],1.11
9,LELLCFDS [MAP4K3],2.88
10,RRVQRTCSSLGEEAPLKNSPPGTQLQPSGQAAGRRQRQREETLALTPSRVVIFGFAHHPGLPDGTLL [C12orf49],11.7
11,CPVPARQKEQCQPHQDRWGFESALIWVCLGAPA [SLC37A3],5.61
12,EEEEEEEEE [Glu09],0.433
13,GGR [RGS21],0.868
14,SFFFPSAS [KAT2B],2.2
15,SLFSLTYRMLV [ZNF639],6.9
16,YGFKTFLLHSTNLTSF [SNED1],33.4
17,SKERHTSEQRSYMCTK [DEFB114],0.227
18,TIRLWDTYQSEPDGFSHFHLYVCAAFLVRWRKEILEEKDFQELLLFLQNLPTAHWDDEDISLLLAEAYRLKFAFADAPNHYKK [TBC1D22A],4.42
19,CGVSPGLMVCLL [APOBEC3F],12.2
20,CCCCCCCC [Cys08],8.63
21,DDD [Asp03],0.645
22,LLC [OR10A3],3.73
23,LTYLGRLGK [APBB3],9.37

row,Substance,median enrichment
1,RILSLIPATPLLISGGRTVSELFVSIGHLSLVVKDWLMITMHRKTFRRKGECFVDHFGFLFCVWQF [EEF1A1],5.71
2,SSSSSS [Ser06],0.35
3,YASRRRRRRGRAAGGTAQATQGRPLRPGGQGGRPASGDRLPPGLWQDVPSEGYFEEPPGPGDREAPVSSMNALPRTQARASGV [MSANTD1],1.01
4,SFQNWMDFYFFQ [CCDC169],19.6
5,REQVPAPHTPWRLPLRLHRLLPSIQPGVQVALFRGQMQAVGRTLPVSCVPHRERLWGDGWGMQSLRANKSSSEPASPLNV [KHK],2.84
6,WADPGYVPYPRGLSIDRDYIITWLEVKGSIQVLHLVLPCLLSDHSDGLMWLLMWNCRRVQRRVCNKAIGKHTGAFPSPSGPRP [HS3ST3B1],4.31
7,YGAKRCLSEVGHFLKIQIFISLFRHGCLQVFHCLLLLEI [TMEM246],19.9
8,QSFTSKFYLLCLPLLSRRSCLLPGSLTCSLS [LRRC1],18
9,RYC [NCK1],0.896
10,CATLSVGFFLEDSTLLPHVLSQLQS [CSTF1],8.47
11,RESAGIEQSSPAQVSSLP [ZNF622],0.239
12,LHVKTFILVSTVFQ [SCGB1D2],6.88
13,YILNLVCRPSRGIKRLALVVKNKADSQTRSDFCPCSSFDVLSVALFLIASSTCKMLFTFCLG [DAB2],7.19
14,WYTF [PNISR],2.74
15,QSQPQLMPSQSQPPVTPSQSQPRVTPSQSQPHVTPYRSKSGKQKQSVPIPKTVSRKGTLKK [ADAM29],0.14
16,LAPRPRETGWRHGAGPSFHGACGCRAGGAAESGPGPLPAGGDFFFSYF [GNA11],11.8
17,SRETVGG [JUN],3.4
18,WSPQHQGGPSLKRKEPTQVRGLPIPPSQVSTFALPPSHWGPCRSWSGLTVPSPGTQLKGPQPKL [CAND2],8.57
19,CMNEWVCWVGEGPGEGSGTEGMPGSLLPTASTDQQGLGQGGHPGGRGRLPPCLPAGGPRRRAGRVHVCGCPGDPGCLPCLPRP [TMEM91],4.17
20,GACFAVGHPAKQANMETTCNLARLYLV [DDX3X],17.6
21,RGPEASWVSLGPQKLIKE [PCP2],0.815
22,CITKCLYCLK [EFCAB1],7.35
23,EEEEEEEE [Glu08],0.411

row,Substance,median enrichment
1,YVLRWNSLGEHLMSQPIQLPHNPAEGRVRGE [WDR62],7.76
2,SRY [IL32],0.749
3,KAQKTEALLPLAGSRDI [PNMA5],0.301
4,YRNSEVQPLENNIQEGHIDYKLMSCPICNSGS [FRRS1],25.3
5,YEPEYSR [GBP4],0.833
6,KKKKKK [Lys06],1.5
7,YKKEKKAKKKK [IQCA1],0.422
8,RGAF [HPX],0.586
9,RWCWGLGRGGELGCQNSMDMFLWMEGRAFVTFCTYSFCGCFDKGMARELVSIISFILFWL [BCO1],16
10,RLHRNCW [OR2Z1],3.02
11,YCLRGRLAASPAPPDLAPRAAAGAAACPGPPLRPASSRRPGAQPCAAEDSRDWRRPRPATAGARGHLPGLLTLSPHWEWAPRG [TMUB1],5.27
12,CGRPELSRPPPALLGAGVLDPWHLPGPLT [LLGL1],2.46
13,RYGWYSLHI [WASHC4],8.03
14,LLASIS [TENT2],5.22
15,YSTVI [C5orf15],0.763
16,QCVSRCQ [SPG21],0.894
17,WHRRTPGDFLYICRLRLFVTSKWDIV [TAF4],5.8
18,YPVTL [SMCO1],0.416
19,WTTNTQRNNLFTTPGCMIEGEASTSTSRGP [TTLL5],16.4
20,LSDHPAFPN [TMBIM6],0.54
